Assay results published in patent publication US20180030151A1 (MOGAM INSTITUTE FOR BIOMEDICAL RESEARCH, published 2018).
Like-named read-outs stand apart in the source and are kept apart here.

How the values were obtained:
Assay in all cases: cell-based or functional assay
[1] = biological target: T1, recombinant human TFPI (tissue factor pathway inhibitor) (human, UniProt P10646 29-304)
[2] = biological target: T1, recombinant human TFPI (tissue factor …); remark: listed apart in the source
[3] = biological target: T1, recombinant human TFPI (tissue factor …); remark: listed apart in the source
[4] = biological target: T1, recombinant human TFPI (tissue factor …); remark: listed apart in the source
[5] = biological target: T1, recombinant human TFPI (tissue factor …); remark: listed apart in the source

Binder	FXa assay % of FXa alone, 2.5 nM Ab, 10 nM TFPI [2] [%]	FXa assay % of FXa alone, 5 nM Ab, 10 nM TFPI [2] [%]	FXa assay OD, 2.5 nM Ab, 10 nM TFPI [2]	FXa assay OD, 5 nM Ab, 10 nM TFPI [2]	FXa assay OD, 10 nM Ab, 10 nM TFPI [2]	FXa assay OD, 20 nM Ab, 10 nM TFPI [2]	A405, TF/FVIIa/FX complex assay (FX 5 nM), Ab 1.56 nM [3]	A405, TF/FVIIa/FX complex assay (FX 5 nM), Ab 3.13 nM [3]	A405, TF/FVIIa/FX complex assay (FX 5 nM), Ab 6.25 nM [3]	A405, TF/FVIIa/FX complex assay (FX 5 nM), Ab 12.5 nM [3]	A405, TF/FVIIa/FX complex assay (FX 5 nM), Ab 25 nM [3]	A405, TF/FVIIa/FX complex assay (FX 5 nM), Ab 50 nM [3]	A405, TF/FVIIa/FX complex assay (FX 5 nM), Ab 100 nM [3]	effect of inhibiting TFPI, FXa activity assay, Ab 10 nM [4] [%]	effect of inhibiting TFPI, FXa activity assay, Ab 20 nM [4] [%]	% of Normalized, TF/FVIIa/FX complex assay (FX 5 nM), Ab 1.56 nM [5] [%]	% of Normalized, TF/FVIIa/FX complex assay (FX 5 nM), Ab 3.13 nM [5] [%]	% of Normalized, TF/FVIIa/FX complex assay (FX 5 nM), Ab 6.25 nM [5] [%]	% of Normalized, TF/FVIIa/FX complex assay (FX 5 nM), Ab 12.5 nM [5] [%]	% of Normalized, TF/FVIIa/FX complex assay (FX 5 nM), Ab 25 nM [5] [%]	other results
clone 2 (antibody, V domains shown) VH: EVQLVESGGGLVKPGGSLRLSCAASGFTFSSYAMNWVRQAPGKGLEWVSTITTGGSYTYYADSVEGRFTISRDNAKNSLYLQMNSLRAEDTAVYYCARQDGNFLMDYWGQGTLVTVSS VL: DVVMTQTPLSLPVTLGQPASISCKSSPSLLDIDGKTYLNWLQQRPGQSPKRLIYLVSKLDSGVPDRFTGSGSGTDFTLKISRVEAEDVGVYYCWQGTHFPFTFGQGTKVEIKR	8.2	45.3	0.0625	0.345	0.602	0.58	0.045	0.045	0.052	0.083	0.416	0.735	0.835	~79	~76	5.5	5.6	6.4	10.3	51.4	FXa assay % of FXa alone, 2.5 nM Ab, 10 nM TFPI [1]: 7.3%; FXa assay % of FXa alone, 5 nM Ab, 10 nM TFPI [1]: 32.8%; FXa assay % of FXa alone, 10 nM Ab, 10 nM TFPI [1]: 76.5%; FXa assay % of FXa alone, 20 nM Ab, 10 nM TFPI [1]: 87.2%; FXa assay OD, 2.5 nM Ab, 10 nM TFPI [1]: 0.0605; FXa assay OD, 5 nM Ab, 10 nM TFPI [1]: 0.271; FXa assay OD, 10 nM Ab, 10 nM TFPI [1]: 0.632; FXa assay OD, 20 nM Ab, 10 nM TFPI [1]: 0.721; % of Normalized, TF/FVIIa/FX complex assay (FX 5 nM), Ab 50 nM [5]: 90.9%; % of Normalized, TF/FVIIa/FX complex assay (FX 5 nM), Ab 100 nM [5]: 103%
clone 3 (antibody, V domains shown) VH: EVQLVESGGGLVKPGGSLRLSCAASGFTFSSYAMNWVRQAPGKGLEWVGTITTGGSHTYYADSVDGRFTISRDNAKNSLYLQMNSLRAEDTAVYYCARQDGNFLMDYWGQGTLVTVSS VL: DVVMTQTPLSLPVTLGQPASISCKSSPSLLDVDGKTYLNWLQQRPGQSPKRLIYLVSKLDSGVPDRFTGSGSGTDFTLKISRVEAEDVGVYYCWQGTHFPFTFGQGTKVEIKR	10.8	45.5	0.0825	0.346	0.536	0.618	0.045	0.046	0.059	0.141	0.527	0.743	0.842	~70	~81	5.6	5.7	7.2	17.4	65.1	% of Normalized, TF/FVIIa/FX complex assay (FX 5 nM), Ab 50 nM [5]: 91.8%; % of Normalized, TF/FVIIa/FX complex assay (FX 5 nM), Ab 100 nM [5]: 104%
